US11667697 (VANDERBILT UNIVERSITY, dated 2023)

Columns and labels:
VACV D8 protein [1] = target: T1, VACV D8 protein (vaccinia virus, UniProt P04195 1-261); experiment: lysate ELISA
T1 sequence: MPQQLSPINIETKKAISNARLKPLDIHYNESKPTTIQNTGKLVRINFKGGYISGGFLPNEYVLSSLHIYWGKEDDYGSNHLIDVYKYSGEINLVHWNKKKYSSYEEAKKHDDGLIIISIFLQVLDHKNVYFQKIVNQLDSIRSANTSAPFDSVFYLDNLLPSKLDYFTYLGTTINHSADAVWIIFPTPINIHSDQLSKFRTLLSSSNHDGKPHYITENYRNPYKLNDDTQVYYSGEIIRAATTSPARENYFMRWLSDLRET

VACV D8 protein [2] = target: T1, VACV D8 protein; experiment: cell-based or functional assay
VACV A27 protein [3] = target: T2, VACV A27 protein (vaccinia virus, UniProt P11258 1-110); experiment: purified antigen ELISA
T2 sequence: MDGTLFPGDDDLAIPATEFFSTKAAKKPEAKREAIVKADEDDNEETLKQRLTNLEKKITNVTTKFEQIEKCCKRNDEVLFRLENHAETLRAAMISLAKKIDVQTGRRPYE

VACV A27 protein [4] = target: T2, VACV A27 protein; experiment: lysate ELISA
VACV A27 protein [5] = target: T2, VACV A27 protein; experiment: cell-based or functional assay
VACV B5 protein [6] = target: T3, VACV B5 protein (vaccinia virus, UniProt Q01227 20-275); experiment: purified antigen ELISA
VACV B5 protein [7] = target: T3, VACV B5 protein; experiment: cell-based or functional assay
VACV B5 protein [8] = target: T3, VACV B5 protein; experiment: lysate ELISA
VACV A33 protein = VACV A33 protein (vaccinia virus, UniProt P68617 58-185); experiment: purified antigen ELISA

B1: VACV-8 (antibody, V domains shown)
VH: QVQLQQWGAGLLKPSETLSLTCAGYGGSFSGYFWSWIRQPPGKGLEWIGEINHSGSTDYNPSLKSRVTISLDTSKTQFSLKLSSVTAADTAVYYCARVMTGITNYYYYYGMDVWGQGTTVTF
VL: DIQLTQSPSFLSASVGDRVTITCRASQDISSYLAWYQQKPGKAPKLLIYAASTLQSGVPSRFSGSESGTEFTLTISSLQPENFATYYCQHLNSYPRGYTFGQGTKVDIK
notes: human IgG1, anti-D8
Q: Which EC50 (VACV D8 protein [1]) does the source give for B1 here?
A: 0.04 µg/mL

Q: What about the “PRNT Emax, VACV MV+C'” value (VACV D8 protein [2]) of the same binder?
A: 74%

Q: What about the “PRNT IC50, VACV MV+C'” value (VACV D8 protein [2]) of the same binder?
A: 0.3 µg/mL

B2: MPXV-30 (antibody, V domains shown)
VH: QVQLVQSGAEVKKPGSSVKVSCKVSGGTFSSLAINWVRQAPGQGLEWMGGIIPIFGKANYAQKFQGRVSIIADESTSTAYMDLSSLRFEDTAVYYCATGGNIRVHDFDIWGQGTLVIVSS
VL: not shown
notes: human IgG1, anti-D8
Q: Which EC50 (VACV D8 protein [1]) does the source give for B2 here?
A: 0.004 µg/mL

B3: VACV-301 (antibody, V domains shown)
VH: EVQLLESGGGLVQPGGSLRLSCAASGFSFSSYAMSWVRQAPGKGLEWVSGIGNSGDRTFYADSAKGRFTIFRDNSNNRLYLQMNSLRAADTAVYYCAKWGRFESGAFWGQGVLVTVSS
VL: SYELTQSPSVSVSPGQTARITCSGDALPEQYAYWYQQKPGQAPVLVIYKDSERPSGIPERFSGSGSGTTVTLTITGVQAEDEADYYCQSADNSGTYEVFGTGTKVTVL
notes: human IgG3, anti-A27
Q: How did the EC50 (VACV A27 protein [3]) turn out when B3 was run?
A: 0.03 µg/mL

Q: What about the EC50 (VACV A27 protein [4]) of the same binder?
A: > 21 µg/mL

Q: What about the “PRNT Emax, VACV MV” value (VACV A27 protein [5]) of the same binder?
A: 61%

Q: What about the “PRNT Emax, VACV MV+C'” value (VACV A27 protein [5]) of the same binder?
A: 77%

Q: And the “PRNT IC50, VACV MV” value (VACV A27 protein [5])?
A: 0.5 µg/mL

Q: And the “PRNT IC50, VACV MV+C'” value (VACV A27 protein [5])?
A: 0.1 µg/mL

B4: VACV-59 (antibody, V domains shown)
VH: QVQLVQSGGGLVKPGGSLRLSCAASGFTFSDYYMSWIRQAPGKGLEWVSYISTSGSTIYYADSVKGRFTISRDNAKNSLYLQMNSLRAEDTAMYYCARDGDGSGSYTPPYYYYGLDVWGQGTTVTVSS
VL: DIQMTQSPSSLSASVGDRVTITCRASQSIRNYLNWYQQKSGKAPKLLIYAASSLQSGVPSRFSGSGSGTDFTLTISSLHPEDFATYYCQQSYSTPPLTFGGGTKVEIK
notes: human IgG2, anti-B5
Q: Which EC50 (VACV B5 protein [6]) does the source give for B4 here?
A: 0.14 µg/mL

Q: What about the “PRNT Emax, VACV EV+C'” value (VACV B5 protein [7]) of the same binder?
A: 72%

Q: What about the “PRNT IC50, VACV EV+C'” value (VACV B5 protein [7]) of the same binder?
A: 0.2 µg/mL

B5: VACV-154 (antibody, V domains shown)
VH: EVQLLESGGGLVQPGESLRLSCAASGFTLRNYAMSWVRQTPGKGLEWVSAISGSGGSTYYADSVKGRFTISRDTSKNTLYVQMNSLRAEDTAVYYCAKIRLDSSGYSGAFDIWGQGTRVTVSS
VL: SYELTQPPSVSVSPGQTARITCSGDALPKQYASWYQQKPGQAPVLVIYKDSERPSGIPERFSGSSSGTTVTLTISGVQAEDEADYYCQSADSSGTYPVVFGGGTQLTVL
notes: human IgG1, anti-A27
Q: With B5 as the binder, how does the EC50 (VACV A27 protein [3]) read?
A: 0.06 µg/mL

Q: And the EC50 (VACV A27 protein [4])?
A: > 0.1 µg/mL

B6: MPXV-43 (antibody, V domains shown)
VH: QVQLVQSGAEVKKPGASVKVSCKASGYTFTKYTIHWVRQAPGQRLEWVGGIYAGYGNTRYSQKFQGRVTITRDTSASTAYMELSSLRSEDTAVYFCARDFEDFDSWTGYYSWLHWGQGTLVTVSS
VL: EIVLTQSPGTLSLSPGERATLSCRASQSVSSTYLAWYQQKPGQAPRLLIYGASSRATGIPDRFSGSGSGTDFTLTITRLEPEDFAMYFCQQYDSSPSITFGQGTRLEIK
notes: human IgG1, anti-B5
Q: What does the source list for B6?
A: EC50 (VACV B5 protein [6]): 10.1 µg/mL; EC50 (VACV B5 protein [8]): 0.011 µg/mL

B7: VACV-302 (antibody, V domains shown)
VH: QLQLQESGPGLVKPSETLSLTCTVSGGSIISSSYYWGWIRQPPGKGLEWLGSIYYSGSTYYNPSLKSRVTISVDTSKNQFSLKVTSVTAADTAVYYCARQISKAAAGSIDYWGQGTLVTVS
VL: not shown
notes: human IgG1, anti-A27
Q: For B7, which EC50 (VACV A27 protein [3]) is on record?
A: 0.08 µg/mL

Q: And the EC50 (VACV A27 protein [4])?
A: 0.01 µg/mL

Q: And the “PRNT Emax, VACV MV” value (VACV A27 protein [5])?
A: 81%

Q: What about the “PRNT Emax, VACV MV+C'” value (VACV A27 protein [5]) of the same binder?
A: 53%

Q: What about the “PRNT IC50, VACV MV” value (VACV A27 protein [5]) of the same binder?
A: 12.3 µg/mL

Q: What about the “PRNT IC50, VACV MV+C'” value (VACV A27 protein [5]) of the same binder?
A: 0.1 µg/mL

B8: MPXV-39 (antibody, V domains shown)
VH: QVQLQQWGAGLLKPSETLSLTCAIYGGSLSGQYWSWIRQPPGRGLEWIGEIHHKGRTNYNPSLKSRVTISIDTSQRQFSLRLTSVSAADTAVYYCASGNYRLGQGTLVTF
VL: DVVLTQSPLTLPVTLGQPASISCRSSQSLVYSDGDTYLNWFQQRPGQAPRRLIYKVSKRDFGVPDRFSGSGSGTDFTLRISRVEAEDVGVYYCMQGTHWPRTFGQGTQVDIK
notes: human IgG3, anti-A33
Q: For B8, which EC50 (VACV A33 protein) is on record?
A: 0.07 µg/mL

B9: VACV-1 (antibody, V domains shown)
VH: EVQLVESGGGLVQPGESLKISCAASGFTFSSFSMNWVRQAPGKGLEWVSYISSSSSTIYYADSVKGRFTISRDNAKNSLYLQMNSLRDEDTAVYYCARRSVGCSGGNCYAYYYGMDVWGQGTTVTVS
VL: not shown
notes: human IgG1, anti-B5
Q: For B9, which EC50 (VACV B5 protein [6]) is on record?
A: 0.02 µg/mL
